In the DeepSol protein solubility set:

Test: soluble on expression in E. coli; label from the status in PepcDB or PDB records
With “MGHHHHHHSHMFNVMVDAKAQSTKLCSMEMGQEFAKMWHQYHSKIDELIEETVKEMITLLVAKFVTILEGVLAKLSRYDEGTLFSSFLSFTVKAASKYVDVPKPGMDVADAYVTFVRHSQDVLRDKVNEEMYIERLFDQWYNSSMNVICTWLTDRMDLQLHIYQLKTLIRMVKKTYRDFRLQGVLDSTLNSKTYETIRNRLTVEEATASVSEGGGLQGISMKDSDEEDEEDD” the “soluble on expression in E. coli” value was “not soluble”. In the case of “MGHHHHHHSHMFVSDFRKEFYEVVQSQRVLLFVASDVDALCACKILQALFQCDHVQYTLVPVSGWQELETAFLEHKEQFHYFILINCGANVDLLDILQPDEDTIFFVCDTHRPVNVVNVYNDTQIKLLIKQDDDLEVPAYEDIFRDEEED”, the “soluble on expression in E. coli” value is reported as “soluble”. In the case of “MGHHHHHHSHMISAHRNLHLPGSSNSPASAFLSSWDYRHVPPCPANVVFLVEMGFLHVGQAGLELPTSDDPPTLASQSAGITGVSHRTWQEFASLTVSQAVLRMLVWGPQFENHCSKLLMASEGDSSLVFFLYPLSNLN”, the “soluble on expression in E. coli” value is reported as “not soluble”. For “MGHHHHHHSHMKGIMVQGTASDVGKSLICTALCRIFARRGYKVTPFKSQNMSNNSYITVEGLEIGRAQGIQAEAAMEEASVYMNPILLKPRNDREAEIVCFGQAVDTVSGVKYRDGFYKRGLEAIKQALATLSQSFDMVVIEGAGSPVEVNLNDRELVNMKVAELADVPVILVADIERGGVFASLYGTLELLQPNERKRVVGIIVNKFRGDPELFSSGVQWIEQHLGVPVLGVLPHLPGVRIEGEDSLSKGQVTSVLP”, the “soluble on expression in E. coli” value was “not soluble”. In the case of “MGHHHHHHSHMKSQGQHWYSSSDKNCKVSFREKLLIIDSNLGVQDVENLKFLCIGLVPNKKLEKSSSASDVFEHLLAEDLLSEEDPFFLAELLYIIRQKKLLQHLNCTKEEVERLLPTRQRVSLFRNLLYELSEGIDSENLKDMIFLLKDSLPKTEMTSLSFLAFLEKQGKIDEDNLTCLEDLCKTVVPKLLRNIEKYKREKAIQIVTPPVDKEAESYQGEEELVSQTDVKTFLEALPQESWQNKHAGSNGNRATNGAPSLVSRGMQGASANTLNSETSTKRAAVYRMNRNHRGLCVIVNNHSFTSLKDRQGTHKDAEILSHVFQWLGFTVHIHNNVTKVEMEMVLQKQKCNPAHADGDCFVFCILTHGRFGAVYSSDEALIPIREIMSHFTALQCPRLAEKPKLFFIQACQGEEIQPSVSIEADALNPEQ”, the “soluble on expression in E. coli” value is reported as “not soluble”. For “MGHHHHHHSHMLKSERKQIILSQLKQDGFVTLENLTVLLSDTSESTIRRDLDELAADGKLKRVHGGAESIHGLKEEIANSQKAIRNVQEKAQLAGYAADLIKEGDVVFLEASTTNELLIPHLSNRQVTVVTNSIHHAVKLVDLGISTRIIGGKVKHSTDASIGSTALEQIRQLNFDCAFIGANGVDANYFTTPDMEEAVIKRTVIANAQKAYVLADASKLGQITYAKVAEVEKVTIITNASEEGLLKELKEKTRVIEV”, the “soluble on expression in E. coli” value was “soluble”. With “MGHHHHHHSHMLLAASKVLDRLKPVIGVNTDPERSEGHLCLPVRYTHSFPEALQKFYRGEFRWLWRQRIRLYLEGTGINPVPVDLHEQQLSLNQHNRALNIERAHDERSEASGPQLLPVRALNEVFIGESLSSRASYYEISVDDGPWEKQKSSGLNLCTGTGSKAWSFNINRVATQAVEDVLNIAKRQGNLSLPLNRELVEKVTNEYNESLLYSPEEPKILFSIREPIANRVFSSSRQRCFSSKVCVRSRCWDACMVVDGGTSFEFNDGAIASMMINKEDELRTVLLEQ” the “soluble on expression in E. coli” value was “not soluble”. In the case of “MGHHHHHHSHMNCCGIWPFGKPGVPYKRLADVETDERMEMEIRLGMPPGVLAADLIRSTKDKQVLEQLYLLAVQANNLTEHIKRFTLGEIPEECKNVTRSQLEKLKSVQHIIWNTMISLAAGAISVDEATLPALLDKRAEETVALLEMEKIATAVKLDETAAWATDIAGIVSSQPLATPPSESPDQIALKKATQLSNAVY”, the “soluble on expression in E. coli” value is reported as “soluble”. With “MGHHHHHHSHMPQFSPSYSFPVQIYYEDTDFSGVVYHPNFLKYFERAREHVIGAEQLRNLWQQQQLGFAVYRSDMLCHEGVEFADIIDIRTKFYFESKYRTVWHQEIWRPNGKKPAVTATIEMVCMNQARQLAPMPAELITQLSLGM” the “soluble on expression in E. coli” value was “soluble”. For “MGHHHHHHSHMQHFKRTGTGTPVKRVRKAIEKSETTSEHTCQLCGGWFDTKIGLSNHVRGHLKRLGKTKWDAHKSPICVLNEMMQNEEKYEKILKALNSRRIIPRPFVAQKLASSDDFISQNVIPLEAYRNGLKTEALSVSASEEEGLNFLNEYDETKPELPSGKKNQSLTLIELLKNKRMGEERNSAISPQKIHNQTARKRFVQKCVLPLNEDSPLMYQPQKMDLTMHSALDCKQKKSRSRSGSKKKMLTLPHGADEVYILRCRFCGLVFRGPLSVQEDWIKHLQRHIVNANLPRTGAGMVEVTSLLKKPASITETSFSLLMAEAAS”, the “soluble on expression in E. coli” value was “not soluble”.
